# Experimental data from article PMC3794620, “The Pyridoxal 5′-Phosphate (PLP)-Dependent Enzyme Serine Palmitoyltransferase (SPT): Effects of the Small Subunits and Insights from Bacterial Mimics of Human hLCB2a HSAN1 Mutations” (BioMed Research International, 2013).
# Residue numbers refer to the chain shown, from its start. Numbers in names are those of the source.
# T1: Sp SPT (Sphingomonas paucimobilis, UniProt Q93UV0, G385F)
# T1 construct: full-length soluble enzyme, pET28a, C-terminal His6 tag, E. coli BL21(DE3), Ni-NTA and gel filtration, homodimer ~90 kDa, PLP holoform
# T1 sequence (Q93UV0 1-420 G385F): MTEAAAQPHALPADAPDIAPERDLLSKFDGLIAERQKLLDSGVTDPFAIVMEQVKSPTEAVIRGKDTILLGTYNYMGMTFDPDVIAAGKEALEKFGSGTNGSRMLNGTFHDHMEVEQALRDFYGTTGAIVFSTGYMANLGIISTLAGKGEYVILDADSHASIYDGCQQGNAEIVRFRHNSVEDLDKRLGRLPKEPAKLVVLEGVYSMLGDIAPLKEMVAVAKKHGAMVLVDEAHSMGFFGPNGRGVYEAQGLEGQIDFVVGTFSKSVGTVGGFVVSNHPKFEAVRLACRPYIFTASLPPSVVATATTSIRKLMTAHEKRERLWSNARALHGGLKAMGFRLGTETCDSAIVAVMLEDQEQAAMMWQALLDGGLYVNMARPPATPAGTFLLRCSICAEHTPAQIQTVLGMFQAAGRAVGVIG
# T2: Sp SPT (Sphingomonas paucimobilis, UniProt Q93UV0)
# T2 construct: full-length soluble enzyme, pET28a, C-terminal His6 tag, E. coli BL21(DE3), Ni-NTA and gel filtration, homodimer ~90 kDa, PLP holoform
# T2 sequence (Q93UV0 1-420): T1 sequence (Q93UV0 1-420 G385F)
# T3: Sp SPT (Sphingomonas paucimobilis, UniProt Q93UV0, V246M)
# T3 construct: full-length soluble enzyme, pET28a, C-terminal His6 tag, E. coli BL21(DE3), Ni-NTA and gel filtration, homodimer ~90 kDa, PLP holoform
# T3 sequence (Q93UV0 1-420 V246M): T1 sequence (Q93UV0 1-420 G385F)
# B1: Sp SPT (Sphingomonas paucimobilis) (protein)
# chain: T1 sequence (Q93UV0 1-420 G385F)
# notes: full-length soluble enzyme, pET28a, C-terminal His6 tag, E. coli BL21(DE3), Ni-NTA and gel filtration, homodimer ~90 kDa, PLP holoform
# B2: Sphingomonas paucimobilis serine palmitoyltransferase V246M (mimic of hLCB2a V359M) (enzyme)
# chain: T1 sequence (Q93UV0 1-420 G385F) with V246M
# modifications: PLP cofactor covalently bound as an imine to Lys265
# notes: serine palmitoyltransferase of Sphingomonas paucimobilis with V246M, made on pET 28a/Sp SPT; The PDB entries are of the wild-type parent; also called Sp SPT V246M; SPT V246M
# B3: Sphingomonas paucimobilis serine palmitoyltransferase G385F (mimic of hLCB2a I504F) (enzyme)
# chain: T1 sequence (Q93UV0 1-420 G385F) with G385F
# modifications: PLP cofactor covalently bound as an imine to Lys265
# notes: serine palmitoyltransferase of Sphingomonas paucimobilis with G385F, made on pET 28a/Sp SPT; The PDB entries are of the wild-type parent; also called Sp SPT G385F; SPT G385F
# How the values were obtained:
# Sp SPT [1] = target: T1, Sp SPT; assay: UV-visible titration, absorbance change at […] nm (external aldimine); assay type: binding; settings: read-out: Kd ^L-ser
# Sp SPT [2] = target: T2, Sp SPT; assay: as above; assay type: binding; settings: read-out: Kd ^L-ser
# Sp SPT [3] = target: T3, Sp SPT; assay: as above; assay type: binding; settings: read-out: Kd ^L-ser
# Sp SPT [4] = target: T2, Sp SPT; assay: UV-visible spectroscopy, quinonoid peak at ~[…] nm; assay type: binding; settings: 1.5 mM analogue, 50 mM L-serine, 40 μM enzyme, 25 °C, 15 min
# Sp SPT [5] = target: T2, Sp SPT; assay: UV-visible spectroscopy of internal aldimine; assay type: binding; settings: covalent (imine to Lys265), 40 μM enzyme, 20 mM potassium phosphate pH 7.5, 150 mM NaCl, 25 °C
# N[C@@H](CO)C(=O)O = tested on: T4, N[C@@H](CO)C(=O)O; assay: DTNB assay of CoASH release, Michaelis-Menten fit; assay type: biochemical, Sphingomonas paucimobilis; settings: co-substrate palmitoyl-CoA
# T4 construct: full-length soluble enzyme, pET28a, C-terminal His6 tag, E. coli BL21(DE3), Ni-NTA and gel filtration, homodimer ~90 kDa, PLP holoform
# Source text: (§1) DTNB assay of CoASH release, Michaelis-Menten fit on Sp SPT
# [6] = tested on: T5, CCCCCCCCCCCCCCCC(=O)SCCNC(=O)CCNC(=O)[C@H](O)C(C)(C)COP(=O)(O)OP(=O)(O)OC[C@H]1O[C@@H](n2cnc3c(N)ncnc32)[C@H](O)[C@@H]1OP(=O)(O)O; assay: DTNB assay of CoASH release, Michaelis-Menten fit; assay type: biochemical, Sphingomonas paucimobilis; settings: co-substrate L-serine
# T5 construct: full-length soluble enzyme, pET28a, C-terminal His6 tag, E. coli BL21(DE3), Ni-NTA and gel filtration, homodimer ~90 kDa, PLP holoform
# Source text: as §1
# [7] = substrate: CCCCCCCCCCCCCCCC(=O)SCCNC(=O)CCNC(=O)[C@H](O)C(C)(C)COP(=O)(O)OP(=O)(O)OC[C@H]1O[C@@H](n2cnc3c(N)ncnc32)[C@H](O)[C@@H]1OP(=O)(O)O; assay: DTNB assay of CoASH release, Michaelis-Menten fit; assay type: biochemical, Sphingomonas paucimobilis; settings: co-substrate L-serine
# Source text: as §1
# [8] = substrate: N[C@@H](CO)C(=O)O; assay: DTNB assay of CoASH release, Michaelis-Menten fit; assay type: biochemical, Sphingomonas paucimobilis; settings: co-substrate palmitoyl-CoA
# Source text: as §1
# [9] = target: the molecule itself; assay: SEC; size exclusion chromatography of the purified enzymes; data not shown
molecule,measurement,setting,value
N[C@@H](CO)C(=O)O [L-serine],Kd,Sp SPT [1],4700 ± 100 µM
same,Kd,Sp SPT [2],1100 ± 100 µM
same,Kd,Sp SPT [3],1500 ± 100 µM
CCCCCCCCCCCCCCCC(=O)CSCCNC(=O)CCNC(=O)[C@H](O)C(C)(C)COP(=O)(O)OP(=O)(O)OC[C@H]1O[C@@H](n2cnc3c(N)ncnc32)[C@H](O)[C@@H]1OP(=O)(O)O [S-(2-oxoheptadecyl)-CoA],"UV-visible spectroscopy, quinonoid peak at ~495 nm",Sp SPT [4],Addition of the analogue to the PLP-L-serine external aldimine form of the wild-type SPT
Cc1ncc(COP(=O)(O)O)c(C=O)c1O [pyridoxal 5′-phosphate],UV-visible spectroscopy of internal aldimine,Sp SPT [5],"characteristic of the holo-, PLP-bound internal aldimine form of the enzyme"
Sp SPT (Sphingomonas paucimobilis; G385F),Km,N[C@@H](CO)C(=O)O,3000 ± 500 µM
same,kcat,N[C@@H](CO)C(=O)O,41 ± 2.0 × 10^-2 s^-1
same,kcat/Km,N[C@@H](CO)C(=O)O,136 M⁻¹ s⁻¹
same,Km,[6],52.2 ± 8.0 µM
same,kcat,[6],41 ± 2.0 × 10^-2 s^-1
same,kcat/Km,[6],7850 M⁻¹ s⁻¹
Sp SPT (Sphingomonas paucimobilis; V246M),Km,N[C@@H](CO)C(=O)O,2500 ± 200 µM
same,kcat,N[C@@H](CO)C(=O)O,44 ± 1.2 × 10^-2 s^-1
same,kcat/Km,N[C@@H](CO)C(=O)O,176 M⁻¹ s⁻¹
same,Km,[6],128.0 ± 10.0 µM
same,kcat,[6],44 ± 1.2 × 10^-2 s^-1
same,kcat/Km,[6],3440 M⁻¹ s⁻¹
B1,Km,[7],35.6 ± 2.0 µM
same,kcat,[7],114 ± 2.0 × 10^-2 s^-1
same,kcat/Km,[7],32000 M⁻¹ s⁻¹
same,Km,[8],1600 ± 90 µM
same,kcat,[8],114 ± 2.0 × 10^-2 s^-1
same,kcat/Km,[8],712 M⁻¹ s⁻¹
B2,stoichiometry N,[9],2
B3,stoichiometry N,[9],2
